# Test results reported in a protein production outcome set (Wang et al. 2014).
# Assay: label from the status in PepcDB records
# 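Note: failed if final PepcDB status was selected cloned or expressed and not failed if soluble or beyond.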
row,Sequence,protein production
1,MIRDVNDNKKKKVDEILSIVKVSSLLFSAMAFLQYTFNLTKYNNKFLAYYSILSILISIFLLSTIYILWSLASLNKYKDHINKIQLIEIILFMIIFIMAILVSGGNSSNNKFLFLFIIITSTIQGGMHRGCVVSVVSSAIILAIDLIFSGNADVNIYFQNDLILAGVFVLTAWTLGFYVKTENDHIKELQTLVNEDGLTGVYNHRYFYDKLREKMHISEVENEKLSLIFMDIDYFKHYNDLYGHQKGDEALKKIGKLLKNIARENDLVARYGGEEFAIILPNTSEEEATKIAERIRNKVEKTYFEGQENQPNANFTVSVGIAVFPDKAKSELELVKCADDALYRAKFFHKNRVETYVSVLDELKRDLNEEENALVASIKTLISIINAKDKYTYSHVERVVIYSRLMAKKLGLSEDEKKQLIYGAYMHDIGKINIPNEILTKKMRLTKEEWEILKQHPKDGVEIIKSVNSLKNVVPLILYHHERYDGFGYPVGLKEKEIPYLARVLTVIDSFDAMTSSRPYNKRKTYDEGLIELERCSGTQFDPEIVGIFSEVVKENINEIQDF,failed
2,MRYADRVAGISWETIEEVRRRLKERPALHFIAGEFVPSESGETFPSLDPATNEVLGVAARGGEREVDRAAKAAHEAFQRWSRTKAKERKRYLLRIAELIEKHADELAVMECLDAGQVLRIVRAQVARAAENFAFYAEYAEHAMEDRTFPVDRDWLYYTVRVPAGPVGIITPWNAPLMLSTWRIAPALAFGNTVVLKPAEWSPFTATKLAEILKEADLPPGVFNLVQGFGEEAGAALVAHPLVPLLTLTGETETGKIVMRNAADHLKRLSPELGGKSPALVFADADLERALDAVVFQIFSFNGERCTASSRLLVEEKIFEDFVGKVVERARAIRVGHPLDPETEVGPLIHPEHLQRVLGYVEAGKREGARLLVGGERAKTSFRGEDLSRGNYLLPTVFVGENHMKIAQEEIFGPVLVAIPFKDEEEALRKANDTKYGLAAYVFTRDLERAHRLALELEAGMVYLNSHNVRHLPTPFGGVKGSGDRREGGTYALDFYTDLKTIALPLRPPHVPKFGK,not failed
3,MILDEKNRKNLVFLILQFFDEEGYEESLHLLEQDSGVFFDFSYLSNAILNGNWKDADDYLSAFTSPEANTFSRKMFFGLFKSGGSEAVKIFSKDLRRIPVLKDDSFDDLVEVIAETCCVDKAPGRAKLCVDLHKLAESNPSLRGKLDFPSLNKSALLALISLLCPNCSRRKGGLKEDLICLILQFLYEAKYKNTLHKLEQETKVFFNLNYLAEVMKLGEYGKAEEYLGAFTNWEDNKYSKAMFLELQKLICLQSTEWEVATPSGSLDNMSLKIKLHASVAMLAKKNPVLKDELKFPSMEKSRLLTLVKQTMDWWTCNNTSSLENVPVVSYLCGTPSSMKFFFKKTVPRKKKPNEIKDPSQCNALVLPDCFSEEKIARLTYSPSGDYILALAEDATHKLWTWSSSQNEFCKPRLHQPQSGKTMENEMATSVQKSTSCFAVKGSYLFSTSGGKIAVFDLKNFEKVASFGSPTPMATYFIFIPGDLLAVGLDDGSIFIHCLSSRKVKEKLEGHDQKITCLAFSRCFNVLVSSDSDGKLCLWSTKSWVKLTSKNSTRKFCNRSNLESTSLVTHIQFDPYQIELLVVHDGWIGLYEVRTLDCRLQWIPDASDPAITSATYSSDGEIIYVGFRCGSIKIVDSKTFMTLCQINLTSFTQLSTSNISLEVYPTVVAAHPSHPNQISAGLSNGKVIVLQPLWSGGWGEAAPLEDNGDYSNDSDHSY,failed
4,MAADPASAPVLLHPRRAMVLAAGLGLRMRPLTETMPKPLVAIHDKPLIDWALDHLATAGVEEAVVNLHHLPEMLEAHLQGRATPRIHFSDETGQRLETGGGVRKALPHLGDDPFYVLNSDVLWLNGTIPALDRLAAAWDPETMDALLLLHPLAAAHGYEGLGDFDLDPLGRPTRRAEMHMAPFIFTGVQILHPRLFDDAPEGPFSLNVLYDRALSEDRLAAIVHDGEWYHVGTPQALVHTETILGQHSSMSDQLEHHHHHH,failed
5,MPDYVYGDSMVLKLTLEYSSVLLVSLICCIIAFTSTYTVMPRLINKLKEANVVGNDIHKISKPIVAEMGGIGILFGFTIGMFIGMYCFPELQYELMVTLLVILLVGIVGMVDDLVRLSSREKLFLLFLAGLPIIWVAPPKVGILYMIMMPVAVSIASNLTNMLAGLNGIESGLGSIAMTALTASCIIMGKYDVSIITMAMLGALLAFLMYNRYPSRVFPGDVGTLIIGACIASVAFIGRVKIIALIVLLPNIIDGILKFYSAGVVERHKHRPTEIAEDGKLIAPPEGFNSLIRWILRRPMTEKKVVMIVWSIGMFFGFLGVLLAFILPLDPF,failed
6,MRLAFWLYEGTALHGVSRVTNSMKGVHTVYHAPQGDDYITATYTMLERTPEFPKLSISVVRGQDLARGTSRLPGTVEQVDKHYKPELIVVAPSCSTALLQEDLGQMARASGVDQSKIMVYAVNPFRVAENEAAEGLFTELVRRFAAEQPKTEKPSVNLLGFTSLGFHLRSNLTSLRRMLKTLGIEVNVVAPWGAGIDDLKKLPAAWVNIAPFREIGCQAAGYLKEKFGMPSITEAPLGVNATLRWLRAIIAEVNKIGAEKGMAPMAMPELRDFSLDGQSAPSSVPWFARTADMESFSNKRAFVFGDATQVVGVTKFLKDELGMKIIGAGTYLPKQADWVREQLEGYLPGELMVTDKFQEVSAFIEEEMPELVCGTQMERHSCRKLDVPCMVISAPTHIENHLLGYYPFFGFDGADVMADRVYTSAKLGLEKHLIDFFGDAGLEYEAEEPEAFTEPTMSGNGTVASVSSAEAPSEAAVVTATATGELSWTAEAEKMLGKVPFFVRKKVRKNTDNYAREIGEPVVTADVFRKAKEHLGGLEHHHHHH,failed
7,MRNPFERMPTVLTADELIDKAFRRAEKAASSFKPRGNKVKKARLREELRVRTVSNVVRDNLRKVLERTPGLSTLPKFYQELVDVLVDRDTFHKAMAGIDWAIRIIRELEERYVERIRYSNDPNEIAELRRQFYGRVASVLRDIDDRLRYLNKAREVLKDLPVVDLEIPTVVIAGHPNVGKSTLLKALTTAKPEIASYPFTTRGINVGQFEDGYFRYQIIDTPGLLDRPISERNEIEKQAILALRYLGNLIIYIFDPSEHCGFPLEEQIHLFEEVHGEFKDLPFLVVINKIDVADEENIKRLEKFVKEKGLNPIKISALKGTGIDLVKEEIIKTLRPLAEKVAREKIERELRRYRSYL,not failed
8,MVDFIRRIQISCVVSLTDSRHQRRTKSHHHPLNPPNPVAESRKRSKGKQKEKVNNMVLFDQATYDKLMSEAPKFKLITPSILSDRLRINGSLARKAIRDLMVKGTIRMVSTHSSQQINTRATCLT,failed
9,MILQNKTFDLNPNDIAGLELVCQTLRNRILEVVSANGGHLSSSLGAVELIVGMHALFDCQKNPFIFDTSHQAYAHKLLTGRFESFSTLRQFKGLSGFTKPSESAYDYFIAGHSSTSVSIGVGVAKAFCLKQALGMPIALLGDGSISAGIFYEALNELGDRKYPMIMILNDNEMSISTPIGALSKALSQLMKGPFYQSFRSKVKKILSTLPESVNYLASRFEESFKLITPGVFFEELGINYIGPINGHDLSAIIETLKLAKELKEPVLIHAQTLKGKGYKIAEGRYEKWHGVGPFDLDTGLSKKSKSAILSPTEAYSNTLLELAKKDEKIVGVTAAMPSGTGLDKLIDAYPLRFFDVAIAEQHALTSSSAMAKEGFKPFVSIYSTFLQRAYDSIVHDACISSLPIKLAIDRAGIVGEDGETHQGLLDVSYLRSIPNMVIFAPRDNETLKNAVRFANEHDSSPCAFRYPRGSFALKEGVFEPSGFVLGQSELLKKEGEILLIGYGNGVGRAHLVQLALKEKNIECALLDLRFLKPLDPNLSAIVAPYQKLYVFSDNYKLGGVASAILEFLSEQNILKPVKSFEIIDEFIMHGNTALVEKSLGLDTESLTDAILKDLGQER,failed
10,MKPKSMKEKLVKDMMSILNLRIKMIDVNGLLKELDDALDKVVAKKEPESFLKPIISPIEDYQKSVRQIQAQFTDAPKFNEEGAYPQFLSCGLLEIKGKNGASMEFCLPKVYPFPPKSLYIEHEKDGQFLREMLMRLLSSAPLVQLEVILVDALSLGGIFNLARRLLHKDNDFIYQQRILTESKEIEEALKHLYEYLKVNLQEKLAGYKDFAHYNEEKKDRLPLKALFLSGVDALSQNALYYLEKIMRFGSKNGVLSFVNLESEKNNKSTEDLKRYAECFKDRTSFERLKYLNIEVINDHGIQSKHMKDFADKIKAYYEKKKAVKRELKDLQKDEKFWTESSQFKVSVPVGWDINHKEVCFEIGNEQNHTLICGRSGSGKSNFLHVLIQNLAFYYAPNEVQLFLLDYKEGVEFNAYTDPNILEHARLVSVASSVGYGMSFLNWLCKEMQERANLFKQFNVKDLSDYRKHGEIPRLIVVIDEFQVLFSDNKSTKAVEGHLNTLLKKGRSYGVHLILATQTMRGTDINRSIMAQIANRIALSMDAEDSNSILGDDAACELVRPEGIFNNNGGHQKHHTKMSIPKAPDDFKPFIKKIHRDFNQRNLVPVEHKIYNGEKPLEMPNTLKANEMRLHLGKEADYEQKDLMVGFENSESHLLVVSQDLSARIALMKLFAQNFKTANKELLFYNAEKRLARELDELKKHHITPMQGPLGSVLDTAMNPNSVLVIDNLNEAKELHDKIGVEKLRSFLEKATDNEQYCIIFAHDLKQIQANYDLSKLKELLNNHFKQRLAFRCNGENLSAIKKDLPLLTNELNALFVELSKDSHTEFRPFSL,failed
11,MSVISIILVLIIAFLAGLDGILDQFQFHQPLVSCTLIGLASGHTVAGIMLGGTLQFLALGWANIGAAVAPDVALASTAAAVIMIKGGDFSQKGITIAYGVAVPLAIAGLALTMVVRAISIGIVHGADAAAKNGNIRAVERSHYFALLLQGLRIVFPVALLLALPANHVKSILEAIPSWLSDGMTIGGGMVVAVGYAMILNMMATREVWPFFIIGFVLAAIPDTQITLFGLGMIGVALAMIYIALTNQTGRNSSSGQASSSSNDPIGDILEDY,failed
12,MGHHHHHHSHSKKPYIVTIACTKGGSAKSTNAANIGAFCADHGLRTLLIDTDTQPTLSSYYSLAKTAPGGIYEFLLQRDVEPSHIVSQTSIKNLDLIQSNDPSNNVSHMLRNAPDGSIRFSHLIKSINNYDVIVIDTRGTRDITVDMSVLAADILFCPILPQILSAKEFIRGTIGMYQDLQTFESFGFKLPPLKAIANGVDNTNDVKFVMQKLHTLFANTFDESKTLLDFSIPYHVAYREAVTYALPVYRHSAVEYPVMQQLCC,failed
13,MQDTLPSRREIAPDSTRPPPTHDDVRAQLNRIITSPQFPHIGRSAAFLTYAVEETLAGRADRIKGYSIAVEVFKRSNGFTQDDPVVRIEAGRLRRVLERYYFTAGQHDPIRIDIPKGGYVPTFAWTSPSEDNSDAEDQSLPPEHASSLFPGLRRHIWTVVLGLIVIVGGASALAGLTSIRFSSIWPFATADITESDGPTLVIAPFANLGDGPQAELYTTGLTEELLTALPRFKEIKVFGRETSRSLPPEVETSRIRGELGARFLLAGGVRVSGSRVRVTARLLDTQTDEILWSQTYDDDIGVRDLFTIQSDVANKVATAVAQPYGIMAQADVSNPPPDDLGSYGCTLSFYAYRAELSIERHGEVRNCLESAVARYPSFATAWAMLSIIYLDEDRFRFNRKPISSTPIDRSFQAARRAVQLDPGNTRALQALMTTLFFSQRVSEALQIGERALATNPNDTELLAEFGTRLAMSGEWQRGAALLDRAIALNPAGGGYYRGTRALAAYMLHDDKTAVIEIRQADLQKFPLFHAVAAVIYVDAGMIDDARSEAARFNEMRPDFIPNIVAELKVRNFQPQDRARMIADLRTAGLLVRDEVQATMSLPIDDSKALQPR,failed
14,MTHETDQLYQAVQATRPLLRNITAAVERGTLREGVTVGQRAILEGLSLTPGATAPQLGAALQMKRQYISRILQEVQRAGLIERRTNPEHARSHRYWLTPRGEAIITAIRADEMAKLALFSEGFSSVELTAYHKVQLALTRFFADLAKEA,not failed
15,MLADPAQPEHVFIVEDSRGATELKLYKSHYTIGKADSCDIRLHSIYASRQHATLVRFLTENGEVRYRLIDGDPETSRRSANGTYVNNRSITECDLKHYDQILFGADVKATYFYLSPQFRSLEHHHHHH,failed
16,LHARLLQQESIINALPFAVFIRTAAGELAVYNSHFAEAHQDKLNDLLNHNNEPANWPMTSPLDREIDKYCRQVLTHRKPQMVDLSLEINGELRDIFLWIIPLDNAERSLFGGWLDISQRKTVERQLEAARVEAESANRTKSTFLATISHELRTPMYAIMGLL,failed
